Data reported in the DeepSol protein solubility set.

assay: soluble on expression in E. coli; label from the status in PepcDB or PDB records

Row | Sequence | soluble on expression in E. coli
1 | MAHHHHHHMWQTVVRRYRLQPTSLAAFLESNCMVAKPPTAALHSDSNLVVAETNSLSIFENLAAEESLIRGLSLDTKQRLLLFYVNRPCVVVGRNQNIFQEVSLRRAAADGVCVARRASGGGAVFHDEGNLCFSFITHRTRYAPEKTIQLVRLGLCASYAIDPARLTTTGRHDLFLDGRKITGSAMRVQRDIAYHHCTLLVDTPHASVGRYLRPEGDYVAFKTSSVGSVRSPVTSLAESGCIADGPGAVAALKGNMADFFLAEGDRVLNAATPWELDAVELRQRFTTARHRCANAPLFALDVVGAVAADMPFIEREGRQPARGDAATLGEAVHKAASKEWAYAMPTFTSTVFLSDSELRRRLKTLSVRQHVALLCSLAEEELLAVLQRCVLEGSEGPEAVAGTEAGLHLVTTVEHRLVTSVVVRRVAPTTATASAVAPSSASSGGWVQRYLSALLVGHPCDAAIEGLECVGDTTAVVQGLVHEAGSLCPDLPDAVGDAALLMVARVLLDVWRDKNVFDIAT | not soluble
2 | MNKLNICIDIDGTITSPYHFLPYLNDIFNKNITEAECITHNWEELYGSGIRDVYAEFNNKYIHSYDEAKIVEGATEVISTLSKGHNLSFVTARHECLTDVTKNWLSRQGFSDIDVYLLGSDYKVEKARELSCDIFIEDNPLNSVQLADDGVKVILLDTNYNKDVKHQNIVRVSNWIDIEKIIKQGI | not soluble
3 | MNKKILVVDDEESIVTLLQYNLERSGYDVITASDGEEALKKAETEKPDLIVLDVMLPKLDGIEVCKQLRQQKLMFPILMLTAKDEEFDKVLGLELGADDYMTKPFSPREVNARVKAILRRSEIRAPSSEMKNDEMEGQIVIGDLKILPDHYEAYFKESQLELTPKEFELLLYLGRHKGRVLTRDLLLSAVWNYDFAGDTRIVDVHISHLRDKIENNTKKPIYIKTIRGLGYKLEEPKMNE | soluble
4 | MGSDKIHHHHHHMADIALFQDDAFSLSSLTAAINEQPHVPGRVGALGLFEEDGITTTTIQIERDGDTLSLVSAGERGSPSAIVVGSKRTMIPFNTVHLPQRAFVKADEIQNLRAFGSETELEALQTVVNRRLAKLRRQLDATHEFHRIGAIKGAVLDADGKTVLIDLLQYFGIEQTVIPFELGKADTEIRVKCLEVQDAIEDALGATTYTGVRVLCGRAFWNKLIVAKTVKETYLATAMAASLRGDAREALDFGGCTFERYRGRVGDIGYVADDEAYAVPEGVPELFVTRFAPADYVEAVNTTGLPYYAKQELAQFGKGVDIEAQSNPVHLCTRPKAIVKLKA | not soluble
5 | EIINEEGKLERKADMFTRRTIQTHRAVTSVDTAVEALAVSIGEKACVDLGYMASLMGGPEKIPQIVEDLKGIIFKNPATGPFDLEDGGAHWHQGWQTADEYLSGNVRAKLAIARAAAEENPQFAINAEKLEQVQPKDLTASEISVRIGASWIDPEYYQQFMFELLHTPVYLQDRKIKLQYSPTTGEWNVQGKSTDNRDNVRVYATYGTKRINAYEIFEQTLNQRDVRIFDKTEVDGKEVRVLNEKQTAIAQQKQEAMCETFKDWIFKDPERRETLCRRYNEKFNCIRPREYDGSHIRFAGMNPEISLRTHQ | not soluble
6 | MGSDKIHHHHHHMPPLNALRAFDAVARHGSFAGAAAELHVTHWAVGKQIRLLEDWFGLPLFDRRPRGVVLTDEGAVLLNDVSHAFEHLGTAVVRLRHNTLAHRISGVVRVNVPMSFAFCWLLPRLADFHSRYPDIDVRVSTTSRKLRYVADAFDIGVRSGPEQGAGVVSRPLMPDLRVPACNPALLRQHPIQSVADLRHHTLLHSATTRSAWSHWLREAGAADLRAARHVEFDHVNLQLGAAIEGLGVALASLPLIGRDLAEGRLVCPIASPVWRADDYTLVTNADRADDAAVSAFEQWMESMASQEAG | not soluble
7 | MAHHHHHHMGTLKAIIAPSVLASNISKLAEETQRMESLGAEWIHLDVMDMHFVPNLSFGPPVINNLKKYTKSIFFDVHLMVEYPEKYVPLLKTSNQLTFHFEALNEDTERCIQLAKEIRDNNLWCGISIKPKTDVQKLVPILDTNLINTVLVMTVEPGFGGQSFMHDMMGKVSFLRKKYKNLNIQVDGGLNIETTEISASHGANIIVAGTSIFNAEDPKYVIDTMRVSVQKYLNN | soluble
8 | MKMNEEKAVVVFSGGQDSTTCLFWAKKQFGEVEAVTFDYGQRHRREIDVAQAIADELGVRHTVLDLSLLGQLAPNALTRRDIAIEQKEGELPTTFVDGRNLLFLSFAAVFAKQRGARHIVTGVCETDFSGYPDCRDVFIKSLNVTLNLAMDYEFVIHTPLMWLTKAETWKLADELGALEFIRTKTLTCYNGIIADGCGECPACVLRKRGLDEYLREKEGVESR | not soluble
9 | MKAICVLSGGLDSAVTSMFAKSKNYDISTVTFNYGQMALNQEIKSAKKISDILNADHHVIDINFVKEFSKSGLNTGNIPEPENEDLDDFEKSEKTMKAVWVPARNMIMFSIASGFAEGIGAEKIFSGLNKEEGVTFPDNTPEFIERFNKSLEYGTLNKVKMVAPLYELNKPEIAKLGKELELKLDLEVLKYSYSCYKDNGKDYLHCGTCESCMRRKRAFKEAGITDPTKYLVE | not soluble
10 | MGSDKIHHHHHHMRIAQVAPLWERVPPPAYGGIELVVGLLTDELVRRGHEVTLFASGDSISLAKLVSVHPRALRLDRTIKDYSVYETLNLASAYERAEEFDIIHSHIGHGALAYANLVTTPTVHTLHGIFTSDNEKMFSFGKKQPYVSISDAQREPRLGLNCIATVYNGIDVSSYNFHAQPEDPPYLAFLGRMSPEKGAHLAIEIAKQAGWCLKMAGKVDVVDVEYFEKEIKPHIDGEQIQYLGEANHAQKNALMGGAFATLFPITWREPFGLVMVESMASGTPVIAMNLGSTEEVISHGKTGFLCNNLQECISAVDRVIELDRYTCRQYVEDLFSVEQMTDGYEAVYQKIIAERFSRNGHSRNLIALSSDRI | not soluble
11 | MYTLREPYKGYEVKVTLLPIEDIVIPPIQRDLSETLIKKLMLSIEKVGFVDPILVVEGEEGKYEVINGQHRLKAAELLGIREIPAIILPQETKDYIISLNVEKAPNLKDKAHQAYEIFMKYLKENPEMEEVELENMVEEPYFLTVGFITDRFGEKRFPAYAFEKVLKKVDEFLGLPLEEAERERENRANVLRDVREVMEEKYQELGLTNALHKEAIISKAFQSVYGKRVRKVDDDFYTVFEKIKEAIPRVSFTEEELESF | soluble
12 | MSLLKVRLCPAERPEAMLIDAHQHFWLMKDRAGQWPPPSLAAIYRDFLPTDLSPLLTAAGVSGTVLVQTMETAADTDFMLELAENTDFIKGVVGWVDMKSAEVTAEIARRAKHPAFKGVRPMLQGMEDVAWIDDAALNAAVEALVKHGLVFDALVLPPNLPHLLSFASKHPELPVVIDHGAKPLIATGHYRDWRRNMAALAARPNVHCKLSGLLTERGEQRPEAVRPYAETILELFGGDRVIFGSDWPVLRLAGDFQGWLDFCRDIVPAKDHAAVFGGNAIRFYSLTDREGHHHHHH | not soluble
13 | MEKKTNCIQNEEQKKEKELIAEKAAKAGFVNRLYVNIGQKVGVVELTKLEPRFERNIDKLTSYHNLIYKIVNVIELQVQFMPKAMAKKAVLCAPGENPWEVLGGWLNYLGKNQFDGQHSKMLEKYSSACGRIAQKEIQVQKRTRSHLIKKMRLYTGEESEILNSNVENLNNLLHAIDDSRHHVKSSKTTKEVKAKGETYRKAINAFNETANEVQALIDEVAMVVPLHENEFLKFSREASVYHDTVHNSLSEVIFRLGYHVKKH | not soluble
14 | MRVLVTGGAGFIGSSFVRYIVNTTDWEVLVYDKLTYAGRLENLHDVIDRIGFMRGDIADEEQFGRVLTEFEPDVVVNFAAETHVDRSINEPAPFMRTNIIGVFTILEAIRKRIDQIVLLHVSTDEVYGDLWNTGKEATESDPLNPSSPYSASKASGDLLIKAYGRTYGLKYRIVRPCNNYGPYQHVEKLIPRTIIRILHGKPPVIYGDGSQIRDWLYVEDTARAIHVVLEKGVDGEIYNVCGGMASTVKDIVVNILESMGKPRDYLVYGKSRPGEDRRYAMKCDKIRNLGWAPHVTLKEGLKITVKWYIENRWWWRPLLDKRYVLADHPW | soluble
15 | MSLSHAETIKLGMSIPLSGSGANWGKGSEWLCAKAAEEIKAAGGVKVQGKVYDFECVGYDNKYNAAEGAKVAQALVSRDGVKYVAGSIGVAPVRALQSLTERRGVLLFTAAWGNSIKGPKFPLTFTQMNSVNEISEPMIAHVKKLHPEIKTVVLLNPNDATGQETEKVAKAAWEKNGVKVLASDWYERGTSEFQPIAAKLNSLKPDLVDLASTPPADAGLVFRELKALGWNGVKVVEVGTGADGLLATGKDAVDGTYLGAAVAVDGLSAHQKALNDGVKKVTGENINSVQIGFYDSVYAIKAAMEKAQSVDPQQVAKVMPDVKFQSFFGEVDFGGKSVYGSDQQMQLPVIITQISGTALKEVGRVQKEGHHHHHH | soluble
16 | MAHHHHHHMSKKNKSFYENDGSGRDTFVNYAGAYWMNPLPAGTFFKSRGHLTQSSVPTENGTSLVMDDSTPYPGRTLFGKSRYGTTILAAGQVATLDAPADSQSGHSAGMGSTSRSTANPLAGTDADAQEFDGEATALEHISFDVSNPERRLRQPGHSTTGLEGTGGGSTYNGVKEPWTAPNAVDSTLLRLAPAYESTCHYHLRTGLFYTEDAAPPHEMTLPDKGVTWGRSRYY | soluble
17 | MGSDKIHHHHHHMIQIKRGKIVGFNERVGRAFHPAQVAEPAQHAPHQRRLARTEVAFQIEGHAGRQAGRKPRAERKRGGLVGKVATRRRGIIRGMHEQDSPRDFGRLAAQIKQWGRELGFAAIGITDADLSAAEAGLHTWLDKGFHGEMDYMAAHGTKRSRPAELVPGTLRIISARLDYFPPDAVDPDTILATPDAAYVSRYALGRDYHKVLRQRLQTLAERIGAAAGEHHFRVFSDSAPVMEVELATRAGLGWRGKHTLLLNRHHGSWFFLGEIYSDLPLPVDAPEAEHCGTCHACLDACPTQAIVAPYSVDARRCISYLTIELKGSIPLELRSLIGNRIYGCDDCQLVCPWNRFAGTAAVPDFAVRNGLDSAQLVDLFAWSEADFNDRLAGSPIRRIGHERWLRNIAVALGNARPAPAIEAALGTRLDHPSAMVREHVAWALARQQER | not soluble
18 | GPGSMFGANAPSTGIGAPAAGFGKPPATFGTSALSGANTTATAGRGFGAATGASATPGFGIAFAAPSTSTAAAGGASGFGSSAASGTTGFGGAAGFGSSAASGTTGFGGAAGFGSSAASGTTGFGAGGGFGAKPGSGFGVSATSGFGAPATGTTGFGAGATAPAAIGGWGAQQPNPAMQPQAPQQPQPTVTLQDFARQSALASYLVKLDESYNALHPNCRFRAFVYNSCGAGQVMDAIQKERYTAHLNGGGCSEEAYMQALHQNPDPGRLYPSPIHFSQELLRRTEKQREAVKVLQKKVTELLQDIDTVAAMDAANVRRQREVEQEEVMLQHRWYSLLCKMELLRRHGSSCGEEGLLNSRVEQLRKLLRAPGRFSQLLSELRPFLTEEASRVAMITQQSANKTEARQQQQQCRFVGSAPAAWRNAGSQPLLRTEVDPYIMKDWVQFAKQMQDGIETLNELLKTDLKEMQAIRSRVEAS | not soluble
19 | MSAIEVTNLVKKFHGQTVLHGIDLEVKPGEVVAIIGPSGSGKTTLLRCINLLEQPEAGTIKVGDIIIDTARPFSQQKGLIRQLRQHVGFVFQSFNLFPHRTVLENIIEGPVIVKGEPKAEATALARELLAKVGLAGKESRYPRRLSGGQQQRVAIARALAMRPEVILFDEPTSALDPELVGEVLNTIRQLAQEKRTMVIVTHEMSFARDVADRAIFMDQGQIVEQGPAKTLFADPQHPRTRQFLEKFLVK | not soluble
20 | MGSDKIHHHHHHMSSSSVLAESCNGSQKKRVFVVGATGYIGKFVVRELVSRGYEVISFARPRSGVNASTTEDETRRQLQGSEVRFGDVSNLESLLRDGIRGEHFDAVVSCLASRNGGIKDSWDIDYQATRNSLDAGMKAGINHFVLLSAICVQKPMLEFQRAKLKFEKELRESGVTYSIVRPTAFFKSIAGQIEKVKNGKPYVMFGDGKLTACKPISEGDLARFITDCLEDPEKQNKILPIGGPGEPVTNLDQALMLFELLGRKPKLKKVPIQIFDVIIPLLTLISKFLPSFAEKAEFARIGKYYCSESMLVWDPVKKRYDADATPSYGTETLRDFYKRVLKEGLAGQELGAHAMF | not soluble
